Consider two substances from paper PMC12350838.

For assay [1], the target named is BoDV-1 L-P complex (one L-protein with a tetramer of P-protein) (Borna disease virus 1 (BoDV-1)). The experiment in a line: cryo-EM structure; Sample 1, RNA-free: co-expressed and co-purified L-P complex used immediately after elution, 0.33 mg/ml on grids; single particle analysis with 2D and 3D classification.
Assay [2] shares this target. Put plainly: cryo-EM structure; Sample 2, reaction conditions: L-P complex with 25 μM 23mer template RNA, 20 μM triphosphorylated 6mer primer, 1 mM SAM, 1 mM each NTP, 1 h on ice, diluted to 0.4 mg/ml; single particle analysis, re-extraction in a larger box and 2D classification.
Assay [3] deals with Borna disease virus 1 (BoDV-1) large protein (L-protein) (Borna disease virus 1 (BoDV-1)). The experiment in a line: cryo-EM structure; Sample 1, RNA-free: co-expressed and co-purified L-P complex used immediately after elution, 0.33 mg/ml on grids; single particle analysis with 2D and 3D classification.
Assay [4] deals with Borna disease virus 1 (BoDV-1) phosphoprotein (P-protein) (Borna disease virus 1 (BoDV-1)). Described as above.

What is called stoichiometry N is a count of units in the complex or per binding partner. In assay [1], “BoDV-1 L-P complex (one L-protein with a tetramer of P-protein)” returned a percent of particles as tetramers of 0.2% and a stoichiometry N of 4. In assay [2], this substance yielded a percent of particles as dimers of 6% and a stoichiometry N of 2.
As for “Borna disease virus 1 (BoDV-1) phosphoprotein (P-protein) (natural protein)”, the stoichiometry N (P-protein chains per L-protein) in assay [3] amounted to 4. The substance also registered a stoichiometry N in assay [4] of 4.
